Laboratory results published in US20160193296A1, “METHODS FOR TREATMENT OF MICROCEPHALY ASSOCIATED AUTISM DISORDERS” (BROWN UNIVERSITY, priority 2012, published 2016).

What was measured:
[1] = tested on: NHE6 mutant hippocampal neurons; test: Axonal and dendritic branching of cultured hippocampal neurons with exogenous BDNF; format: cell-based, mouse
Description: (§1) Hippocampi were dissected from P0-P1 mice, dissociated with papain (20 units/ml) in Earle's Balanced Salt Solution (EBSS) with bicarbonate at 37° C. for 30 min and triturated with a 1 ml pipette. Hippocampal neurons were placed on 8-well chamber slides coated with 1 mg/ml poly-D-lysine at a cell density of 3×10^5 cells/ml. For neuronal morphology, neurons at 1 DIV were transfected with EGFP constructs or together with testing constructs at a ratio of 1:1 using Lipofectamine 2000 (Invitrogen) according to manufacturer guidelines. For LysoTracker experiments, GFP transfected neurons at 5 DIV were incubated with 100 nM Lysotracker Red DND-99 at 37° C. for 30 min. After washing with PBS for 3 times, cells were imaged live or cells were fixed with 4% paraformaldehyde for 15 min and Z-series images were obtained under a Zeiss LSM710 confocal laser scanning microscope.
Images of cultured hippocampal neurons (2 DIV) were captured from randomly chosen fields on a Zeiss LSM710 confocal laser scanning microscope, blinded to genotypes, and traced using Metamorph Neurite Outgrowth software. The number of processes (i.e., neurites emanating directly from the cell body) per cell, the total number and total cumulative length of all neurite branches per cell and the length of the longest neurite per cell were determined. Z-series images of individual GFP-filled neurons at 5 DIV were obtained on a Carl Zeiss 710 confocal microscope and traced manually using Neurolucida software. Quantification of the branch number and total length of axons and dendrites per cell was done on images acquired with 20× objective. Quantitative analysis for LysoTracker red labeled endosomes was performed by using Neurolucida in images acquired with 63× objective. LysoTracker red puncta that completely overlapped with GFP-labeled dendrites or axons were scored as co-localized endosomes. Each experiment was performed on at least three different batches of cultured neurons.
Taken together our data support a model wherein due to loss of NHE6 there is an abnormal acidification of early endosomes resulting in impoverished branching as a result of decreases in BDNF/TrkB signaling. Given this model, we predicted that exogenous and high levels of BDNF may rescue the branching defects through enhancing TrkB signaling. To investigate the ability of exogenous BDNF to interact and improve the cellular phenotype seen, we added BDNF (50 ng/ml) to wild-type and mutant cultures at 2 DIV and examined cultures on day 5 for effects on axonal and dendritic branching associated with NHE6 mutation. […] We saw effects on both branching as well as an increase in the number of primary dendrites. […]

TrkB receptor = test: Western blot of TrkB receptor and phospho-Trk levels after BDNF in hippocampal cultures at 4 DIV; format: cell-based, mouse; conditions: for TrkB receptor level normalized to time of BDNF administration: 50 ng/ml BDNF for 30 min
Description: as §1
Next, we examined directly the levels of TrkB receptor in response to signaling. TrkB is well-known to be endocytosed upon binding BDNF and a significant degree of signaling has been proposed to occur within signaling endosomes upon endocytosis. […] To test this hypothesis, we examined TrkB receptor levels and phospho-Trk levels in response to BDNF signaling in NHE6 mutant and wild type hippocampal cultures at 4 DIV.

[2] = NHE6 mutant neurons, BDNF 50 ng/ml added at 2 DIV, examined on day 5

B1: BDNF: secreted protein, member of the neurotrophin family of growth factors; binds to the TrkB receptors (protein)
chain: HSDPARRGELSVCDSISEWVTAADKKTAVDMSGGTVTVLEKVPVSKGQLKQYFYETKCNPMGYTKEGCRGIDKRHWNSQCRTTQSYVRALTMDSKKRIGWRFIRIDTSCVCTLTIKRGR
- rescue of branching defects (in words) ([1]; NHE6 mutant cells, BDNF 50 ng/ml, 2 DIV to day 5): increased both axonal and dendritic branching in mutant cells to a level approaching wild-type levels
- axonal branching [1, 2]: 27.7+/−2.0 branch points per cell
- dendritic branching [1, 2]: 34.4+/−2.4 branches per cell
- primary dendrites [1, 2]: 8.7+/−0.4 dendrites
- TrkB receptor level normalized to time of BDNF administration (TrkB receptor; NHE6 mutant neurons): 0.79+/−0.04
- TrkB receptor level in mutant neurons as % of the control (TrkB receptor; mutant/WT, 50 ng/ml BDNF, 30 min): 76.5%
- TrkB receptor level in mutant neurons as % of wild type (TrkB receptor; mutant/WT, 50 ng/ml BDNF, 60 min): 73.3%
- TrkB receptor level in mutant neurons as % of wild type (TrkB receptor; mutant/WT, 50 ng/ml BDNF, 2 h): 74.9%
- induction of phospho-Trk in mutant compared to control (TrkB receptor; mutant/WT, after adding BDNF, throughout the whole treatment duration): approximately 48%
- TrkB receptor level normalized to time of BDNF administration (TrkB receptor; wild type neurons): 1.03+/−0.06
